Results on one protein are retold here after PMC3738495, “Structure of the Parainfluenza Virus 5 (PIV5) Hemagglutinin-Neuraminidase (HN) Ectodomain” (PLoS Pathogens, 2013).

This series concerns the molecule itself. The series can be described thus: crystal structure; PIV5 HN ectodomain 56-565 at ~10 mg/mL with a 1.2 molar excess of sialyllactose; 1.6 M ammonium sulfate, 0.1 M MES pH 6.5, 10% 1,4-dioxane, room temperature; space group I4, 2.5 Å.

By stoichiometry N is commonly meant the number of molecules, sites or subunits per partner or assembly.

B1: PIV5 HN ectodomain (56-565) (domain or fragment)
chain: SGLGSITDLLNNILSVANQIIYNSAVALPLQLDTLESTLLTAIKSLQTSDKLEQNCSWSAALINDNRYINGINQFYFSIAEGRNLTLGPLLNMPSFIPTATTPEGCTRIPSFSLTKTHWCYTHNVILNGCQDHVSSNQFVSMGIIEPTSAGFPFFRTLKTLYLSDGVNRKSCSISTVPGGCMMYCFVSTQPERDDYFSAAPPEQRIIIMYYNDTIVERIINPPGVLDVWATLNPGTGSGVYYLGWVLFPIYGGVIKGTSLWNNQANKYFIPQMVAALCSQNQATQVQNAKSSYYSSWFGNRMIQSGILACPLRQDLTNECLVLPFSNDQVLMGAEGRLYMYGDSVYYYQRSNSWWPMTMLYKVTITFTNGQPSAISAQNVPTQQVPRPGTGDCSATNRCPGFCLTGVYADAWLLTNPSSTSTFGSEATFTGSYLNTATQRINPTMYIANNTQIISSQQFGSSGQEAAYGHTTCFRDTGSVMVYCIYIIELSSSLLGQFQIVPFIRQVTLS
notes: Hemagglutinin-neuraminidase (HN) of parainfluenza virus 5, ectodomain residues 56-565 (stalk 56-101, linker 102-117, head from I118); also called parainfluenza virus 5 hemagglutinin-neuraminidase ectodomain
With B1, the “stoichiometry N” value was determined as 4.
